Measured values from patent US11278600B2, “Human alpha-galactosidase variants” (Codexis, Inc., priority 2014, dated 2022).
Where a chain is given by its changes, count along the chain named.

Key:
Assay type in all cases: biochemical
[1] = HTP-analysis of yeast culture supernatants, no challenge (MUGal hydrolysis); conditions: activity of the variant/activity of WT GLA (SEQ ID NO: 5), yeast supernatant
Protocol: (§1) Yeast (INVSc1) cells transformed with vectors expressing GLA and GLA variants using the lithium acetate method were selected on SD-Ura agar plates. After 72 h incubation at 30° C. colonies were placed into the wells of Axygen® 1.1 ml 96-well deep well plates filled with 200 μl/well SD-Ura broth (2 g/L SD-Ura, 6.8 g/L yeast nitrogen base without amino acids [Sigma Aldrich]), 3.06 g/L sodium dihydrogen phosphate, 0.804 g/L disodium hydrogen phosphate, pH 6.0 supplemented with 6% glucose. The cells were allowed to grow for 20-24 hours in a Kuhner shaker (250 rpm, 30° C., and 85% relative humidity). Overnight culture samples (20 μL) were transferred into Corning Costar® 96-well deep plates filled with 380 µL of SD-ura broth supplemented with 2% glucose. The plates were incubated for 66-84 h in a Kuhner shaker (250 rpm, 30° C., and 85% relative humidity). The cells were then pelleted (4000 rpm×20 min), and the supernatants isolated and stored at 4° C. prior to analysis.
GLA variant activity was determined by measuring the hydrolysis of 4-methylumbelliferyl α-D-galactopyranoside (MUGal). For this assay, 5-50 μL, of yeast culture supernatant produced as described above, was mixed with 0-45 μL, of McIlvaine Buffer (McIlvaine, J. Biol. Chem., 49:183-186 [1921]), pH 4.8 and 50 μL of 2 mM MUGal in 50 mM citrate, 200 mM KCl, pH 4.6 in a 96-well, black, opaque bottom plate. The reactions were mixed briefly and incubated at 37° C. for 30-180 minutes, prior to quenching with 100 μL, of 1 M sodium carbonate. Hydrolysis was analyzed using a SpectraMax® M2 microplate reader monitoring fluorescence (Ex. 355 nm, Em. 448 nm).

[2] = HTP-analysis of supernatants pretreated with base (MUGal hydrolysis); conditions: challenge at pH 7.0; activity of the variant/activity of WT GLA (SEQ ID NO: 5); yeast supernatant
Protocol: as §1
GLA variants were challenged with basic (neutral) buffer to simulate the pHs that the variants encounter in the blood following their administration to a patient. First, 50 μL of yeast culture supernatant and 50 uL of McIlvaine buffer (pH 7.0-8.2) or 200 mM sodium bicarbonate (pH 9.1-9.7) were added to the wells of a 96-well round bottom plate. The plates were sealed and incubated at 37° C. for 1-18 h. For the assay, 10-50 μL of basic-pH-challenged sample was mixed with 0-40 μL, of McIlvaine buffer pH 4.8, 25 μL, of 1 M citrate buffer pH 4.3 and 25 μL, of 4 mM MUGal in McIlvaine buffer pH 4.8. The reactions were mixed briefly and incubated at 37° C. for 30-180 minutes, prior to quenching with 100 μL, of 1 M sodium carbonate. Hydrolysis was analyzed using a SpectraMax® M2 microplate reader monitoring fluorescence (Ex. 355 nm, Em. 448 nm).

[3] = HTP-analysis of supernatants pretreated with acid (MUGal hydrolysis); conditions: challenge at pH 4.3; activity of the variant/activity of WT GLA (SEQ ID NO: 5); yeast supernatant
Protocol: as §1
GLA variants were challenged with acidic buffer to simulate the extreme pHs that the variants may encounter in lysosomes. First, 50 μL of yeast culture supernatant and 50 uL of McIlvaine buffer (pH 3.3-4.3) were added to the wells of a 96-well round bottom plate. The plates were sealed with a PlateLoc Thermal Microplate Sealer (Agilent) and incubated at 37° C. for 1-3 h. For the assay, 10-50 uL of acid-pH-challenged sample was mixed with 0-40 μL, of McIlvaine buffer pH 4.8, 25 μL, of 1 M citrate buffer pH 4.3 and 25 μL, of 4 mM MUGal in McIlvaine buffer pH 4.8. The reactions were mixed briefly and incubated at 37° C. for 30-180 minutes, prior to quenching with 100 μL, of 1 M sodium carbonate. Hydrolysis was analyzed using a SpectraMax® M2 microplate reader monitoring fluorescence (Ex. 355 nm, Em. 448 nm).

B1: 15 (protein)
chain: LDNGLARTPTMGWLHWERFMCNLDCQEEPDSCISEKLFMEMAELMVSDGWKDAGYEYLCIDDCWMAPQRDSEGRLQADPQRFPHGIRQLANYVHSKGLKLGIYADVGNKTCAGFPGSFGYYDIDAQTFADWGVDLLKFDGCYCDSLENLADGYKHMSLALNRTGRSIVYSCEWPLYMWPFQKPNYTEIRQYCNHWRNFADIDDSWKSVKSILDWTSFNQERIVDVAGPGGWNDPDMLVIGNFGLSWNQQVTQMALWAIMAAPLFMSNDLRHISPQAKALLQDKDVIAINQDPLGKQGYRLRKGDNFEVWERPLSGLAWAVAMINRQEIGGPRSYTIAVASLGKGVACNPACFITQLLPVKRKLGFYEWTSRLKSHINPTGTVLLQLENTMQMSLKDLL
modifications: Synthetic Polypeptide sequence of Variant No. 15 of mature Human GLA
[1]
  Relative Activity of GLA Variants After No Challenge (NC): + (+ = 0.5 to 1.5 relative activity over WT GLA (SEQ ID NO: 5))
[2]
  Relative Activity of GLA Variants After Challenge at pH 7.0: + (+ = 0.5 to 1.5 relative activity over WT GLA (SEQ ID NO: 5))
[3]
  Relative Activity of GLA Variants After Challenge at pH 4.3: + (+ = 0.5 to 1.5 relative activity over WT GLA (SEQ ID NO: 5))

B2: 16 (protein)
chain: LDNGLARTPTMGWLHWERFMCNLDCQEEPDSCISEKLFMEMAELMVSDGWKDAGYEYLCIDDCWMAPQRDSEGRLQADPQRFPHGIRQLANYVHSKGLKLGIYADVGNKTCAGFPGSFGYYDIDAQTFADWGVDLLKFDGCYCDSLENLADGYKHMSLALNRTGRSIVYSCEWPLYMWPFQKPNYTEIRQYCNHWRNFADIDDSWKSIKSILDWTSFNQERIVDVAGPGGWNDPDMLVIGNFGLSWNQQVTQMALWAIMAAPLFMSNDLRHISPQAKALLQDKDVIAINQDPLGKQGYQLRQGDNFEVWERPLSGLAWAVAMINRQEIGGPRSYTIAVASLGKGVACNPACFITQLLPVKRKLGFYEWTSRLKSHVNPTGTVLLQLENTMQMSLKDLLL
modifications: Synthetic Polypeptide sequence of Variant No. 16 of mature Human GLA
[1]
  Relative Activity of GLA Variants After No Challenge (NC): + (+ = 0.5 to 1.5 relative activity over WT GLA (SEQ ID NO: 5))
[2]
  Relative Activity of GLA Variants After Challenge at pH 7.0: + (+ = 0.5 to 1.5 relative activity over WT GLA (SEQ ID NO: 5))
[3]
  Relative Activity of GLA Variants After Challenge at pH 4.3: ++ (++ = >1.5 to 2.5 relative activity over WT GLA (SEQ ID NO: 5))

B3: 25 (protein)
chain: B2 chain with K36Q, D48E, K373R, V376I
modifications: Synthetic Polypeptide sequence of Variant No. 25 of mature Human GLA
[1]
  Relative Activity of GLA Variants After No Challenge (NC): + (+ = 0.5 to 1.5 relative activity over WT GLA (SEQ ID NO: 5))
[2]
  Relative Activity of GLA Variants After Challenge at pH 7.0: + (+ = 0.5 to 1.5 relative activity over WT GLA (SEQ ID NO: 5))
[3]
  Relative Activity of GLA Variants After Challenge at pH 4.3: + (+ = 0.5 to 1.5 relative activity over WT GLA (SEQ ID NO: 5))

B4: 24 (protein)
chain: B2 chain with D48E, K373R
modifications: Synthetic Polypeptide sequence of Variant No. 24 of mature Human GLA
[1]
  Relative Activity of GLA Variants After No Challenge (NC): + (+ = 0.5 to 1.5 relative activity over WT GLA (SEQ ID NO: 5))
[2]
  Relative Activity of GLA Variants After Challenge at pH 7.0: + (+ = 0.5 to 1.5 relative activity over WT GLA (SEQ ID NO: 5))
[3]
  Relative Activity of GLA Variants After Challenge at pH 4.3: ++ (++ = >1.5 to 2.5 relative activity over WT GLA (SEQ ID NO: 5))

B5: 20 (protein)
chain: B2 chain with D48E, I208V, N247D, Q299R
modifications: Synthetic Polypeptide sequence of Variant No. 20 of mature Human GLA
[1]
  Relative Activity of GLA Variants After No Challenge (NC): + (+ = 0.5 to 1.5 relative activity over WT GLA (SEQ ID NO: 5))
[2]
  Relative Activity of GLA Variants After Challenge at pH 7.0: ++ (++ = >1.5 to 2.5 relative activity over WT GLA (SEQ ID NO: 5))
[3]
  Relative Activity of GLA Variants After Challenge at pH 4.3: +++ (+++ = >2.5 relative activity over WT GLA (SEQ ID NO: 5))

B6: 18 (protein)
chain: B2 chain with D48E, F217S, K373R, V376I
modifications: Synthetic Polypeptide sequence of Variant No. 18 of mature Human GLA
[1]
  Relative Activity of GLA Variants After No Challenge (NC): + (+ = 0.5 to 1.5 relative activity over WT GLA (SEQ ID NO: 5))
[2]
  Relative Activity of GLA Variants After Challenge at pH 7.0: ++ (++ = >1.5 to 2.5 relative activity over WT GLA (SEQ ID NO: 5))
[3]
  Relative Activity of GLA Variants After Challenge at pH 4.3: + (+ = 0.5 to 1.5 relative activity over WT GLA (SEQ ID NO: 5))

B7: 19 (protein)
chain: B2 chain with D48E, I208V, N247D, Q299R, Q302K
modifications: Synthetic Polypeptide sequence of Variant No. 19 of mature Human GLA
[1]
  Relative Activity of GLA Variants After No Challenge (NC): + (+ = 0.5 to 1.5 relative activity over WT GLA (SEQ ID NO: 5))
[2]
  Relative Activity of GLA Variants After Challenge at pH 7.0: + (+ = 0.5 to 1.5 relative activity over WT GLA (SEQ ID NO: 5))
[3]
  Relative Activity of GLA Variants After Challenge at pH 4.3: ++ (++ = >1.5 to 2.5 relative activity over WT GLA (SEQ ID NO: 5))

B8: 22 (protein)
chain: B2 chain with D48E, I208V, Q299R, K373R
modifications: Synthetic Polypeptide sequence of Variant No. 22 of mature Human GLA
[1]
  Relative Activity of GLA Variants After No Challenge (NC): + (+ = 0.5 to 1.5 relative activity over WT GLA (SEQ ID NO: 5))
[2]
  Relative Activity of GLA Variants After Challenge at pH 7.0: + (+ = 0.5 to 1.5 relative activity over WT GLA (SEQ ID NO: 5))
[3]
  Relative Activity of GLA Variants After Challenge at pH 4.3: + (+ = 0.5 to 1.5 relative activity over WT GLA (SEQ ID NO: 5))

B9: 23 (protein)
chain: B2 chain with D48E, I208V, Q302K
modifications: Synthetic Polypeptide sequence of Variant No. 23 of mature Human GLA
[1]
  Relative Activity of GLA Variants After No Challenge (NC): + (+ = 0.5 to 1.5 relative activity over WT GLA (SEQ ID NO: 5))
[2]
  Relative Activity of GLA Variants After Challenge at pH 7.0: ++ (++ = >1.5 to 2.5 relative activity over WT GLA (SEQ ID NO: 5))
[3]
  Relative Activity of GLA Variants After Challenge at pH 4.3: +++ (+++ = >2.5 relative activity over WT GLA (SEQ ID NO: 5))

B10: 17 (protein)
chain: B2 chain with D48G, V376I
modifications: Synthetic Polypeptide sequence of Variant No. 17 of mature Human GLA
[1]
  Relative Activity of GLA Variants After No Challenge (NC): + (+ = 0.5 to 1.5 relative activity over WT GLA (SEQ ID NO: 5))
[2]
  Relative Activity of GLA Variants After Challenge at pH 7.0: + (+ = 0.5 to 1.5 relative activity over WT GLA (SEQ ID NO: 5))
[3]
  Relative Activity of GLA Variants After Challenge at pH 4.3: + (+ = 0.5 to 1.5 relative activity over WT GLA (SEQ ID NO: 5))

B11: 21 (protein)
chain: B2 chain with D48E, I208V, N247D
modifications: Synthetic Polypeptide sequence of Variant No. 21 of mature Human GLA
[1]
  Relative Activity of GLA Variants After No Challenge (NC): + (+ = 0.5 to 1.5 relative activity over WT GLA (SEQ ID NO: 5))
[2]
  Relative Activity of GLA Variants After Challenge at pH 7.0: ++ (++ = >1.5 to 2.5 relative activity over WT GLA (SEQ ID NO: 5))
[3]
  Relative Activity of GLA Variants After Challenge at pH 4.3: +++ (+++ = >2.5 relative activity over WT GLA (SEQ ID NO: 5))
